The nanobody polyreactivity screen of Harvey et al. (2022)

Assay: yeast display, Sf9 membrane polyspecificity reagent, FACS + sequencing; frameworks hold sequencing errors
How it was run: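 Genes from sorted yeast were amplified by colony PCR, read by MiSeq 2 × 250 sequencing and filtered on CDR length. These cells carried a synthetic nanobody library in Saccharomyces cerevisiae BJ5465 and were sorted by FACS into low and high (top ~1%) gates on anti-HA and streptavidin fluorescence. Polyreactivity is labelled according to the gate of origin.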

Row | Sequence | polyreactivity (PSR sort gate)
1 | QVQLVESGGGLVQAGGSLRLSCAASGRTFLIYDMGWYRQAPGKVRELVAAIRDRGATTYYADSVKGRFTISRDNAKNTVYLHMNSLKPEDTSVYYCSARNGAYPALKEGDYWGQGTQVTVSS | high polyreactivity
2 | QVQLVESGGGLVQAGGSLRLSCAASGYIFDRYAMGWYRQAPGKERELVATITRRGGSTYYADSVKGRFTISRDNAKNTVYLQMNSLKPEDSAVYYCAKRSPGTYIAMGYWGQGTQVTVSS | high polyreactivity
3 | QVQLVESVRGLVHAGGSLRLSCAASGSTFYPYRMGGYRQAPGKEREFVAAITWSGGSTYYADSVKGRFTISRDNAKNTVYLQMNSLKPEDTAVYYCNKDARWYAYNSEYDHWGQGTQVSVSS | low polyreactivity
4 | QVQLVESGGGLVQAGCRLRLSCAASGRTSPRYTMGWYRQAHGKERELVASITVSDGSTYYADSVKGRFTISRDNAKNTVYLQMNSLKPEDTAVYYCARPGYWYRYISTSKLHYYWGQGTQETVSS | low polyreactivity
5 | QVQLVESGGGLVQAGGSLRLSCAASGYIFFNYGMGWYRQAPGKERELVAASTTIDGTTYYADSVKGRFTISRDNAKHTVYLQMNSLKPEDTAVYYCNADLYWLWYGEFDYWGQGTQVTVSS | high polyreactivity
6 | QVQLVESGGGLVQAGGSLRLSCAASGSTFKGYAMGWYRQAPGKERELVAAITWSSGRTYYADSVKGRFTISRDNAKNTVYLQMNSLKPEDTAVYYCAAKSRRTRRSYYWGQGTQVTVSS | high polyreactivity
7 | QVQLVESGGGLVQAGGILRLSCAASGSIFPGYAMGWYRQAPGKERELVAAISTSGGSTYADSVKGRFTISRDNAKNTVYLQMNSLKPEDTAVYYCAATYTYTSPVYYSLDGPWPYDYWGQGTQVTVSS | low polyreactivity
8 | QVQLVESGGGLVQAGGSLRLSCAASGSTFRYYAMGWYRQAPGKVRELVAAITSSGTSTYYADSVTGRFTISRDNAKNTVYLQKNSLKPEDTAVYYCAAPPVYKWVSSRYDYWGQGTQVTVSS | low polyreactivity
9 | QVQHVDSGGGLDHAGGSLRLSCAASGSIFAGYAMGWYRQAPAKERELDAAISSTGGRTYYADSVKGRFTISRDNAKTSVYLQMNSLKPEDTAVYYCGGAYYASYYYWGQGTQVTVSS | high polyreactivity
10 | QVQHVESCGGLVQAGGSLRLSCAASGSIFTYYAMGWYRQAPGKEREFVAAISRRGGSTYYADSVKGRFTISRDNAKNTVYLQMNSLKPEDTAVYYCNARYTGSSLYYWGQGTQVTVSS | high polyreactivity
11 | QVQLVESGGGLVQAGGSLRLSCAASGITFSYNAMGWSRQAPGKERELVAAIRVGDGSTYYADSVKGRFTISRDNAKNTVYLQMNSLKPEDTAVYYCNARYLRLRYPYTDEYNYWGQGTQVTVSS | low polyreactivity
12 | QVQLVESGGGLDQAGGSLRLSCAASGSIFTYNVMGWYRQAPGKERELVAAISWDGDSTYYADSVKGRFTISRDNAMKTVYLQMNSLKAEDTAVYYCAADVHEKFQYDYWGQGNQVTVSS | high polyreactivity
13 | QVQLVESGGGLVQAGGSLLLSCAASGFILYSYAMGWYRQAPGTEREFVSVISRGGGRTYYADSVKGRFTISRDNAKNTVYLQMNCLKPDDTAVYYCAATPSNVYAYEYWGQGTQVTVSS | low polyreactivity
14 | QVQLVESGGGLVQAGGSLRLSCAASGIIFSYYVMGWYRQAPGKERELVAAISRSGAITYYADSVKGRFTISRDNAKNTVYLQMNSLKPEDTSVYYCAAELVPYSYHLRLDYWGQGTQVTVSS | high polyreactivity
15 | QVQLVESGGGLVQAGGSLRLSCAASGSTFDYYAMGWYREAPGKERELVAGITSDGSTYYADSVKGRFTISRDNAKNTVYLQMNSLKPEDTAVYYCNKAPYHWPYEYWGQGTQVTVSS | low polyreactivity
16 | QVQLVESGGGLVQAGGSLRLSCAASGSTFTVYAMGWYRLAPGKERELVAAISGSGGRTYYADSVKGRFTISRDNAKNTVYLQMNSLKPEDTAVYYCIARWGYRRGYWGQGTQVTVSS | high polyreactivity

Row | Sequence | polyreactivity (PSR sort gate)
17 | QVQLVESGGGLVQAGGSLRLSCAASGFIFGDYAMGWYRQAPGKERELVAAITWSGGRTYYADSVKGRFTISRDNAKNTVYLQMNSLKPEDTAVYYCSAVWYTSRQKYDYWGQGTQVTVSS | low polyreactivity
18 | QVQLVESGGGLVLAGGSLRLSCAASGNILIGNVMGWYRPAPGKERELVAAITSGGDTYYADSVKGRFTISRDNAKNTVYLQMNSLNPEDTAVYYCAADRPGQPKYEYWRQGTQVTVSS | low polyreactivity
19 | QVQLVESGGGLVQAGGSLRLSCAASGSIFRVYAMGWYRQAPGKEREFVAAITRRGTRTYYADSVKGRFTISRDNAKNTVYLQMNSLKPEDTAVYYCAAYFTEGLYEYWGQGTQVTLSS | low polyreactivity
20 | QVQLVESGGGLVQAGGSLRLSCAASGFIFYWYAMGWYRQAHGKERELVARITQSVGRTYYADSVKGRFTISRDNAKNTVYLQMNSLKPEDTAVHYCATDYGSYWSGAAYERYDYWGQGTQVTVSS | low polyreactivity
21 | QVQLVESGGGLVQAGGSLRLSCAASGFTFLSYAMGWYRQAPGKERELVAAISRSGGSTYYADSVKGRFTISRDNAKNTVYLQMNSLKPEDTAVYYCAARSAFRNQFSRNNYWGQGTQVTVSS | high polyreactivity
22 | QVQLVESGGGLVQAGGSLRLSCAASGITIYDYTMGWYRQAPGKERELVAVITSAGSTYYADSVKGRFTISRDNAKNTVYLQMNSLKPEDTAVYYCAAVIVSRGRKYRLDYWGQGTQVTVSS | high polyreactivity
23 | QDQLVESGGGLVQAGGSLRLSCAASAFTLSPNSMGWDRQAPGKEREFVAAISQRGGSTYYADSVKGRFTISRDNAKNTVYLQMNSLKPEDSAVYYCARDTKYKYDYWGQGTQVTVSS | low polyreactivity
24 | QVQLVESGGGLVQAGGSLRLSSAASGRTFWNNAMGWYRQAPGKERELVAAITSGGRTNYADSVKGRFTISRDNAKNTVYLQMNSLKPEDTAVYYCAAVGYVIYDYWVQGTQVTVSS | low polyreactivity
25 | QVQLVESGGGLVQAGGSLRLSCAASGLIFGGYAMGWYRQAPGKERELVAAISSSGGRTYYADSVKGRFTISRDNAKNTVYLQMNSLKPEDTAVYYCATRVHYRNDYWGQGTQVTVSS | high polyreactivity
26 | QVQLVESGGGLVQAGGSLRLSCAASGFIFRYNAMGWYRQAPGKESELVAAISSSGTTNYADSVKGRFTISRDNAKNTVYLQMNSLKPEDTAVYYCAARRSYARRFKNSMEYWGEGTQVTVSS | high polyreactivity
27 | QVQLVESGGGLVQAGGSLRLSCAASGSIFSRYAMGWYRQAPGKERELVAAISWRGGSTYYADSVKGRFTISRDNAKNTVYLQMTSLKPEDTAVYYCAAVYRGGPYYYWGQGTQVTVSS | high polyreactivity
28 | QVQLVESGGGLVQAGGSLRLSCAASGLIFPWNAMGWYRQAPGKERELVAAINGRDGSTYYADSVKGRFTISRDNAKNTVYLQMNSLKPEDTAVYYCAKGPSGVRTYREYDSWGQGTQVTVSS | low polyreactivity
29 | QVQLVESGGGLVQAGGSLRLICAASGRIFLYYAMGWYRQAPGKERELVADINSGGNTTYADSVKGRFTISRDNAKNTVYLQMNSLKPEDTAVYYCAADPVFDLWEFVLDYGYDYWGQGTQVTVSS | low polyreactivity
30 | QVQLVESGGGLVQAGGSLRLSCAASGGTFYRNAMGWYRQAPGKERELVAAITKRGGSTYYADSVKGRFTISRDNAKNTVYIQINSLKPEDTAVYYCAKDAAPIPGNDSDYWGQGTQVTVSS | high polyreactivity
31 | QVQLVESGGGLVQAGGSIRLSCAASGSTFVWNAMGWYRQAPGKERELVAAISSSGGSTYYADSVKGRFTISRDNAKNTVYLQMNSLKPEDTAVYYCAAYYGRRRFGYWGQGTQVTVSS | high polyreactivity
32 | QVQLQESGGGLVQAGGSLRLSCAVSGTIFFPLDMGWYRQAPGREREYVAAIAEGTSTYYADSVKGRFTISRDNAKNTVYPQMYSLNPEDTAVYYCAAYRSTPQQFHYWGQGTQVTVSS | high polyreactivity
